Assay [1] has as its target cynomolgus BCMA-Fc (cynomolgus). Description: SPR, 25C.
The target in assay [2] is T1, human BCMA-Fc (human).
T1 chain: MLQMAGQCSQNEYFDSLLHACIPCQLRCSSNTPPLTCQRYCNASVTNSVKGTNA
Description: SPR, 25C. (In general: SPR reads the build-up and loss of mass on a sensor chip optically.)

Chain of cynomolgus BCMA-Fc (cynomolgus) (chain, as listed by the source): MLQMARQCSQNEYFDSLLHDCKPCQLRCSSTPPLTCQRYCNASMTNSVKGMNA

B1: P1AG5007 (E04_VH1a/VL1e) (antibody, V domains shown)
VH: QVQLVQSGAEVKKPGASVKVSCKASGYTFTNYWMHWVRQAPGQGLEWMGIIHPNSGSTNYNEKFQGRVTMTRDTSTSTVYMELSSLRSEDTAVYYCARGIYDYPFAYWGQGTLVTVSS
VL: DIQMTQSPSSLSASVGDRVTITCRASESVSIHGTHLMHWYQQKPGKAPKLLIYAASSLQSGVPSRFSGSGSGTDFTLTISSLQPEDFATYYCQQSIEDPYTFGGGTKVEIK
For orientation: Kd means the concentration at which binding is half-saturated. Read a high Kd as lower affinity. As for B1, the Kd in assay [1] was found to be 12 nM; in assay [2], 3 nM.

B2: P1AG5053 (E04_VH1a/VL1h) (antibody, V domains shown)
VH: QVQLVQSGAEVKKPGASVKVSCKASGYTFTNYWMHWVRQAPGQGLEWMGIIHPNSGSTNYNEKFQGRVTMTRDTSTSTVYMELSSLRSEDTAVYYCARGIYDYPFAYWGQGTLVTVSS
VL: DIQMTQSPSSLSASVGDRVTITCRASESVSIHGTHLMHWYQQKPGKAPKLLIYAASNLESGVPSRFSGSGSETDFTLTISSLQPEDFATYFCQQSIEDPYTFGGGTKVEIK
Consider B2, for which the Kd was 13 nM in assay [1] and 2.4 nM in assay [2].

B3: P1AG5004 (E04_VH1a/VL1b) (antibody, V domains shown)
VH: QVQLVQSGAEVKKPGASVKVSCKASGYTFTNYWMHWVRQAPGQGLEWMGIIHPNSGSTNYNEKFQGRVTMTRDTSTSTVYMELSSLRSEDTAVYYCARGIYDYPFAYWGQGTLVTVSS
VL: DIQMTQSPSSLSASVGDRVTITCRASESVSIHGTHLMHWYQQKPGKAPKLLIYAASNLESGVPSRFSGSGSETDFTLTISSLQPEDFATYYCQQSIEDPYTFGGGTKVEIK
Take B3: the Kd in assay [1] worked out at 16 nM; in assay [2] it was 2.5 nM.

B4: P1AG5076 (E04_VH1b/VL1h) (antibody, V domains shown)
VH: QVQLVQSGAEVKKPGASVKVSCKASGYTFTNYWMHWVRQAPGQGLEWMGIIHPNSGSTNYNEKFQGRVTMTVDKSTSTVYMELSSLRSEDTAVYYCARGIYDYPFAYWGQGTLVTVSS
VL: DIQMTQSPSSLSASVGDRVTITCRASESVSIHGTHLMHWYQQKPGKAPKLLIYAASNLESGVPSRFSGSGSETDFTLTISSLQPEDFATYFCQQSIEDPYTFGGGTKVEIK
B4: the figures for the Kd in assay [1] and in assay [2] were 23 nM and 1.9 nM, respectively.

B5: P1AG5044 (E04_VH1b/VL1b) (antibody, V domains shown)
VH: QVQLVQSGAEVKKPGASVKVSCKASGYTFTNYWMHWVRQAPGQGLEWMGIIHPNSGSTNYNEKFQGRVTMTVDKSTSTVYMELSSLRSEDTAVYYCARGIYDYPFAYWGQGTLVTVSS
VL: DIQMTQSPSSLSASVGDRVTITCRASESVSIHGTHLMHWYQQKPGKAPKLLIYAASNLESGVPSRFSGSGSETDFTLTISSLQPEDFATYYCQQSIEDPYTFGGGTKVEIK
For B5, the Kd in assay [1] came to 20 nM; in assay [2], 1.8 nM.

B6: P1AG5031 (54_VH2a/VL2a) (antibody, V domains shown)
VH: EVQLLESGGGLVQPGGSLRLSCAASGFTFSNAWMDWVRQAPGKGLEWVSQITAKSNNYATYYADSVKGRFTISRDNSKNTLYLQMNSLRAEDTAVYYCTDDGYHWGQGTLVTVSS
VL: DIQMTQSPSSLSASVGDRVTITCRASEDIRNGLAWYQQKPGKAPKLLIYNANSLHTGVPSRFSGSGSGTDFTLTISSLQPEDFATYYCEDTSKYPYTFGQGTKLEIK
Consider B6, for which the Kd is 4.7 nM in assay [1] and 2.4 nM in assay [2].

B7: P1AG5080 (54_VH1a_Y292D/VL2a) (antibody, V domains shown)
VH: EVQLVESGGGLVKPGGSLRLSCAASGFTFSNAWMDWVRQAPGKGLEWVGQITAKSNNYATDYAAPVKGRFTISRDDSKNTLYLQMNSLKTEDTAVYYCTDDGYHWGQGTLVTVSS
VL: DIQMTQSPSSLSASVGDRVTITCRASEDIRNGLAWYQQKPGKAPKLLIYNANSLHTGVPSRFSGSGSGTDFTLTISSLQPEDFATYYCEDTSKYPYTFGQGTKLEIK
On to B7, for which the dissociation constant (Kd) in assay [1] amounted to 4.3 nM; in assay [2], 1.3 nM.

B8: P1AG5056 (54_VH1b/VL1a_N651A) (antibody, V domains shown)
VH: EVQLVESGGGLVKPGGSLRLSCAASGFTFSNAWMDWVRQAPGKGLEWIAQITAKSNNYATYYAAPVKGRFTISRDDSKNTLYLQMNSLKTEDTAVYYCTDDGYHWGQGTLVTVSS
VL: AIQMTQSPSSLSASVGDRVTITCRASEDIRNGLAWYQQKPGKAPKLLIYAANSLHTGVPSRFSGSGSGTDFTLTISSLQPEDFATYYCEDTSKYPYTFGQGTKLEIK
Turning to B8, the Kd came out at 13 nM in assay [1] and 4.2 nM in assay [2].

B9: P1AG5071 (54_VH2a/VL1a_T699S) (antibody, V domains shown)
VH: EVQLLESGGGLVQPGGSLRLSCAASGFTFSNAWMDWVRQAPGKGLEWVSQITAKSNNYATYYADSVKGRFTISRDNSKNTLYLQMNSLRAEDTAVYYCTDDGYHWGQGTLVTVSS
VL: AIQMTQSPSSLSASVGDRVTITCRASEDIRNGLAWYQQKPGKAPKLLIYNANSLHSGVPSRFSGSGSGTDFTLTISSLQPEDFATYYCEDTSKYPYTFGQGTKLEIK
B9: the Kd in assay [1] turned out to be 6.5 nM; in assay [2], 3.4 nM.

B10: P1AG5013 (54_VH2a/VL1a_L1_pGL) (antibody, V domains shown)
VH: EVQLLESGGGLVQPGGSLRLSCAASGFTFSNAWMDWVRQAPGKGLEWVSQITAKSNNYATYYADSVKGRFTISRDNSKNTLYLQMNSLRAEDTAVYYCTDDGYHWGQGTLVTVSS
VL: AIQMTQSPSSLSASVGDRVTITCRASEDIRNDLGWYQQKPGKAPKLLIYNANSLHTGVPSRFSGSGSGTDFTLTISSLQPEDFATYYCEDTSKYPYTFGQGTKLEIK
Turning to B10, the Kd was 1.9 nM in assay [1] and 2.4 nM in assay [2].

B11: P1AG5027 (54_VH1b/VL1a_L1_pGL) (antibody, V domains shown)
VH: EVQLVESGGGLVKPGGSLRLSCAASGFTFSNAWMDWVRQAPGKGLEWIAQITAKSNNYATYYAAPVKGRFTISRDDSKNTLYLQMNSLKTEDTAVYYCTDDGYHWGQGTLVTVSS
VL: AIQMTQSPSSLSASVGDRVTITCRASEDIRNDLGWYQQKPGKAPKLLIYNANSLHTGVPSRFSGSGSGTDFTLTISSLQPEDFATYYCEDTSKYPYTFGQGTKLEIK
Consider B11, for which the dissociation constant (Kd) in assay [1] came to 1.2 nM; in assay [2], 1.7 nM.

B12: P1AG5061 (54 parental) (antibody, V domains shown)
VH: EVQLVESGGGLVKPGESLRLSCAASGFTFSNAWMDWVRQAPGKRLEWIAQITAKSNNYATYYAAPVKGRFTISRDDSKNTLYLQMNSLKKEDTAVYYCTDDGYHWGQGTLVTVSS
VL: AIQMTQSPSSLSASVGDRVTIACRASEDIRNGLAWYQQKPGKAPKLLIYNANSLHTGVPSRFSGSGSGTDFTLTISSLQPEDEAIYYCEDTSKYPYTFGQGTKLEIK
As for B12, the Kd in assay [1] stood at 1.9 nM; in assay [2], 1.4 nM.

B13: P1AG5057 (54_VH1a_Y292D/VL1a) (antibody, V domains shown)
VH: EVQLVESGGGLVKPGGSLRLSCAASGFTFSNAWMDWVRQAPGKGLEWVGQITAKSNNYATDYAAPVKGRFTISRDDSKNTLYLQMNSLKTEDTAVYYCTDDGYHWGQGTLVTVSS
VL: AIQMTQSPSSLSASVGDRVTITCRASEDIRNGLAWYQQKPGKAPKLLIYNANSLHTGVPSRFSGSGSGTDFTLTISSLQPEDFATYYCEDTSKYPYTFGQGTKLEIK
For the molecule B13, the results for the Kd in assay [1] and in assay [2] were 4 nM and 1.7 nM, respectively.

B14: P1AG5062 (E04 parental) (antibody, V domains shown)
VH: QVQLQQPGAELVKPGASVKLSCKASGYTFTNYWMHWVKQRPGQGLEWIGIIHPNSGSTNYNEKFKSKATLTVDKSSSTAYMQLSSLTSEDSAVYYCARGIYDYPFAYWGQGTLVTVSS
VL: DIVLTQSPASLAVSLGQRATISCRASESVSIHGTHLMHWYQQKPGQPPKLLIYAASNLESGVPARFSGSGSETDFTLNIHPVEEEDAATYFCQQSIEDPYTFGGGTKLEIK
B14: the values for the equilibrium dissociation constant (Kd) in assay [1] and in assay [2] were 33 nM and 3.1 nM, respectively.

The values are drawn from patent US20260285998 (published 2026).
